The DeepSol protein solubility set

experiment: soluble on expression in E. coli; label from the status in PepcDB or PDB records

Sequence | soluble on expression in E. coli
MSLRQPNPSQKKAPTGQVRIISGLWRGRKLPVHDAEGLRPTTDRVKETLFNWLAQEVPNARCLDLFAGSGGLGFECASRQANQVTMLELNPLAFQQLKTNVQSLKAENIELIHTDALAFLRQSGKPYDVVFIDPPFRQGLLQETTQLLEQNGWLAPQAMIYIECEKELPLTELPPHWHLHREKSAGQVCYREGHHHHHH | not soluble
MSLRSDLINALYDENQKYDVCGIISAEGKIYPLGSDTKVLSTIFELFSRPIINKIAEKHGYIVEEPKQQNHYPDFTLYKPSEPNKKIAIDIKTTYTNKENEKIKFTLGGYTSFIRNNTKNIVYPFDQYIAHWIIGYVYTRVATRKSSLKTYNINELNEIPKPYKGVKVFLQDKWVIAGDLAGSGNTTNIGSIHAHYKDFVEGKGIFDSEDEFLDYWRNYERTSQLRNDKYNNISEYRNWIYRGRK | soluble
MSLRVMIVDDHGTNRELCRFILAHIASHIDTFEDGQQAIDAMREMEILPDVILLDVMMPIKDGFVTAKEIRQAFVKHHIPIIFLTVLDDRDSFEKCLALGDDFILKPVERSVLIAKVQAHYRIVKMHNEGHHHHHH | not soluble
MSLRVMIVDDHGTNRELCRFILAHIASHIDTFEDGQQAIDAMREMEILPDVILLDVMMPIKDGFVTAKEIRQAFVKHHIPIIFLTVLDDRDSFEKCLALGDDFILKPVERSVLIAKVQAHYRIVKMHNEVMEQRDELRHFREQVQYDYAISESIFTNLMEEMCHQVEHIFGIHYISTPSTIFNGDLIVVANRPHGGVYVMIADATGHGLPAAISTIPATRTFFSTAQKGLSLGEMVIELNHSLERFLPVGMMLAASVFEVRANGFEISWWGGGLPEAYLLDHHGNIVSRLISNHMPLGVLPSNEFEADVQHFKLEPNQKLVCYTDGIIEAMNEQGEYFGQERLEHVLTKAYSEALIPTLYDAVKKFSNRGKGDDLSILTMTFPITNSNSSDKALPKVVLSCIPLQTELHFPADVLRKISLMNEVRRFLTGIVSGGEDLDLLCSVLSELFANAIEHGLLELDSSLKETPDGFFEFYQLRDKRLKTLPEYHWLILKVNYQPDKQRIEIDLEHSGKGFDCQALKDASNQKSYGRGILLATQLCESLEYSNQGRRVTAVYSFARKDTLHYSLPSEGHHHHHH | soluble
MSLSAGDSMPGPKSTFRVGVWEDRNKKCRRTMEDTHAFLYNFVQTPALNDASAKDKPEGDDLVTSDMVESDNGYFAIFDGHAGTFAADWCGKKLHIILEDIIRKNPNALIPEVLDQAFTAADAQLEKLPLKNSGCTAAVAVLRWEDRASNDRSAIKPVKPEEPIEMDKANDGSSNEEATKATNSKGKGSGRQRVLYTANVGDARIILCRGGKALRLSYDHKGSDEVEGKRIAAAGGLILNNRVNGVLAVTRALGDAYMKKLVTGHPYTTETVIQPDSDEFIIIACDGIWDVCSDQEAVDLVRNVNDPISASKQLVDYALNRFSTDNLSCMVVRLDQNKEAAVEEGHHHHHH | soluble
MSLSANDVNKDHLQTSIKQCENNGNGQEEGLKNPSKSGTTFYVPWEGSENFLSCQSKNGTPIMMVAYQTVLRDPLPGEEENVHLAARLLAGTVVKPGEVFSQNNKIGPYVIARGFKKGPTYIGTKLTTTIGGGVCKMASTLYNVAILSNLPVVERHAHSMPVPYVPYGQDATVSYGNKDLKFKNDTSSPIMIWAQGVDNILYVAFYSSTKPPEVEWHHEMLKLIKADKVYKMSSTLPKGREKLLMEGMDGAIVKSWVTVKNPDGTVIKRDLRKSYYNPMPHVYEKGKEGHHHHHH | soluble
MSLSDAFLSSIKNRRTIYALDKQLPVSQEKIVELVKEAVSHSPSAFNSQSSRVVVLFGAEHEQFWNIAKDELKKIVPADAFAATETKLNSFAAGAGTVLFFEDQTVVRQLQEQFALYADNFPVWSEQASGMAQFAVWTALAEHKVGASLQHYNPLVDAQTHKTWNLPESWKLRAQMPFGAIAAPAGEKAFIAESERFKVFGNEGGSHHHHHH | soluble
MSLSDPKFIHLRIHSDFSMVDGLSKVPPLVKKVAAMGMPAMALTDFTNLCGLVKFYSTAHNCGVKPIIGADFTLQSEEFGDELTKLTLLAKNNVGYKNLTLLISKAYLRGHVQHQPVIDKAWLVEHAEGLIVLSGGKSGEVGRALLKGNQQQVERCIEFYQTHFADHFYLELIRTGRADEESYLHFALDVAEQYDLPVVATNEVVFITEGHHHHHH | not soluble
MSLSEASFLYLNDIHADPLYSPIIPSKHDCRGDHKKTIDPHKYGQYECDSPMELFESLVSNAKQTNEKPAFILLGGDLIAHGLNTDSKMLKQSFKNVTAPLEAAFPNTSIYITLGNNDFASDYGSFDTDADNFKTAYKVFGKWMNDEQSKTFLKGGYYYADFPEVNLRFLFLNSVMYAAKRDQTQHAEDPYDQFAWIESSYDDAVQKGFKVSVALHIPPGVYYYKNKLGWNEDYITKFSKIMKKCDFSFILSGHSHTDMFLPLYSPTADKDSVLYSLSAPSVSPVNYNNPGYRVFELSNGIVKDYTQYYADLLMNPSVLKWQVEYKFSDAYSASNVTRETINNAAEWVRTTGEGQWRYRERIYTRADEHNAFYYCALKALLPDDIVDCENKLNIDKLSAQPYYKEGHHHHHH | soluble
MSLSEKAKKPQKLKARLPRGFVDRSAADIHATNEMVDKIRRVYELYGFDPIETPLFEYTDALGKFLPDSDRPNEGVFSLQDDDDQWMSLRYDLTAPLARHVAENFNEIQLPYRTYRAGYVFRNEKPGPGRFRQFMQFDADTVGAAGVQADAEMCMMMADTMEALGIARGDYVIRVNNRKVLDGVMEAIGLGGEDNAGRRLNVLRAIDKLDKFGPEGVKLLLGPGRKDESGDFTKGAGLGDEQIEKVLFFVGIKDYAASADDLAKLVAGTSKGEEGVDELNTIGALVSGAGYDATRIKIDPSVVRGLEYYTGPVYEAELTFDVTNEKGEKVVFGSVGGGGRYDGLVSRFMGQPVPATGFSIGVSRLMTALKNLGKLGQVKPLAPVLITVMDGDVESMGRYQRFTQALRAEGIRAEMYQGNWKKFGNQLKYADRLGSPIAIIQGGDERAEGVVQIKDLIEGKRLSGEIEDNASWREARVAQVSEGHHHHHH | soluble
MSLSEKKVHLRLRKELSVPIAVVENESLAQLSYEEESQASLMDISMEQQQLRLHSHFDNSKVFTENNRYIVKTLQTDYSSGFSNDDELNGYIDMQIGYGLVNDHKKVYIWNIHSTQKDTPYITVPFRSDDNDEIAVAPRCILTFPATMDESPLALNPNDQDETGGLIIIKGSKAIYYEDINSINNLNFKLSEKFSHELELPINSSGGEKCDLMLNCEPAGIVLSTNMGRIFFITIRNSMGKPQLKLGKLLNKPFKLGIWSKIFNTNSSVVSLRNGPILGKGTRLVYITTNKGIFQTWQLSATNSHPTKLIDVNIYEAILESLQDLYPFAHGTLKIWDSHPLQDESSQLFLSSIYDSSCNETYYILSTIIFDSSSNSFTIFSTYRLNTFMESITDTKFKPKIFIPQMENANDTNEVTSILVMFPNAVVITQVNSKLDSSYSMRRKWEDIVSLRNDIDIIGSGYDSKSLYVLTKQMGVLQFFVKENEETNSKPEVGFVKSHVDQAVYFSKINANPIDFNLPPEISLDQESIEHDLKLTSEEIFHSNGKYIPPMLNTLGQHLSVRKEFFQNFLTFVAKNFNYKISPELKLDLIEKFEILNCCIKFNSIIRQSDVLNDIWEKTLSNYNLTQNEHLTTKTVVINSPDVFPVIFKQFLNHVVFVLFPSQNQNFKLNVTNLINLCFYDGILEEGEKTIRYELLELDPMEVDTSKLPWFINFDYLNCINQCFFDFTFACEEEGSLDSYKEGLLKIVKILYYQFNQFKIWINTQPVKSVNANDNFININNLYDDNHLDWNHVLCKVNLKEQCIQIAEFYKDLSGLVQTLQTLDQNDSTTVSLYETFFNEFPKEFSFTLFEYLIKHKKLNDLIFRFPQQHDVLIQFFQESAPKYGHVAWIQQILDGSYADAMNTLKNITVDDSKKGESLSECELHLNVAKLSSLLVEKDNLDINTLRKIQYNLDTIDAEKNISNKLKKGEVQICKRFKNGSIREVFNILVEELKSTTVVNLSDLVELYSMLDDEESLFIPLRLLSVDGNLLNFEVKKFLNALVWRRIVLLNASNEGDKLLQHIVKRVFDEELPKNNDFPLPSVDLLCDKSLLTPEYISETYGRFPIDQNAIREEIYEEISQVETLNSDNSLEIKLHSTIGSVAKEKNYTINYETNTVEYEGHHHHHH | soluble
MSLSELVRKLSGTAPNPAFPRGAVDTQMHMYLPGYPALPGGPGLPPGALPGPEDYRRLMQWLGIDRVIITQGNAHQRDNGNTLACVAEMGEAAHAVVIIDATTTEKDMEKLTAAGTVGARIMDLPGGAVNLSELDAVDERAHAADWMVAVQFDGNGLLDHLPRLQKIRSRWVFDHHGKFFKGIRTDGPEMAALLKLIDRGNLWFKFAGVYESSRKSWPYADVAAFSRVIAAHAPERIVWGTNWPHNSVRETAAYPDDARLAELTLGWLPDEAARHRALVENPEALFKLSPVKEGHHHHHH | soluble
